# B1: NRSE/RE1 dsDNA (dsDNA)
# DNA 1: TTCAGCACCACGGACAGCGCC
# DNA 2: GGCGCTGTCCGTGGTGCTGAA
# B2: NRSE dsRNA (dsRNA)
# RNA 1: UUCAGCACCACGGACAGCGCC
# RNA 2: GGCGCUGUCCGUGGUGCUGAA
# Target: Bovine serum albumin (Bos taurus, UniProt P02769 P02769:25-607)
# Assay: EMSA; BSA control
# Description: To compare the affinity between NRSE dsDNA and NRSE dsRNA to NRSF/REST protein, an electrophoretic mobility shift assay (EMSA) was performed. NRSF/REST with cMyc-tag was expressed in 293T cells and immunoprecipitated with anti-cMyc antiboby. After purification, the protein was incubated with either NRSE dsDNAs or dsRNAs. A range of NRSF/REST protein concentrations was tested; the highest one tested produced a shift in dsDNA migration, whereas a 16-fold lower concentration of NRSF/REST protein was enough to produce a shift in dsRNA (FIG. 6C). […] Binding of NRSF/REST to the sequence of the MCS control dsRNAs or dsDNAs was not observed. […] This highly specific binding between NRSE dsRNA and NRSF/REST protein may contribute to a functional switch of the NRSF/REST machinery from transcriptional repressor to activator.
# Sequence of Bovine serum albumin (P02769 25-607, one chain of several): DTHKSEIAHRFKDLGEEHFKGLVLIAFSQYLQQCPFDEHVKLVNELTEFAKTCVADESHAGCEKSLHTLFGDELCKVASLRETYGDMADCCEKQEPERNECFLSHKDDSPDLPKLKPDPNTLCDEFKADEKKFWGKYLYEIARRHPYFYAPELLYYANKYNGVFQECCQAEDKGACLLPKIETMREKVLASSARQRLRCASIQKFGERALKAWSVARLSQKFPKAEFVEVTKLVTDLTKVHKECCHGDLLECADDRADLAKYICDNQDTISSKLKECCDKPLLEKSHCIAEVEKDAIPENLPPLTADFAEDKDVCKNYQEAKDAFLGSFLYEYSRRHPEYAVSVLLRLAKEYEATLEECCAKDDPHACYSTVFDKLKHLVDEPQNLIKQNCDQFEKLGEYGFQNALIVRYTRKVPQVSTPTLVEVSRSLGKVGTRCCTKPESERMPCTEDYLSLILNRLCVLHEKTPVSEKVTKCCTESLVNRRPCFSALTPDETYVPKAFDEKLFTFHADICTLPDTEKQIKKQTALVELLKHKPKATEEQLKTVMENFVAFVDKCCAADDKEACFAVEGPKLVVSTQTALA
row,Binder,binding result
1,B1,no binding
2,B2,no binding

# Source: patent publication US20050226848, “Transcriptional regulation of gene expression by small double-stranded modulatory RNA” (published 2005)
